Assay results reported in patent US20050032146A1 (published 2005).

Legend:
[1] = target: T1, tsks fused to the GAL 4 activation domain (AD)
T1 chain: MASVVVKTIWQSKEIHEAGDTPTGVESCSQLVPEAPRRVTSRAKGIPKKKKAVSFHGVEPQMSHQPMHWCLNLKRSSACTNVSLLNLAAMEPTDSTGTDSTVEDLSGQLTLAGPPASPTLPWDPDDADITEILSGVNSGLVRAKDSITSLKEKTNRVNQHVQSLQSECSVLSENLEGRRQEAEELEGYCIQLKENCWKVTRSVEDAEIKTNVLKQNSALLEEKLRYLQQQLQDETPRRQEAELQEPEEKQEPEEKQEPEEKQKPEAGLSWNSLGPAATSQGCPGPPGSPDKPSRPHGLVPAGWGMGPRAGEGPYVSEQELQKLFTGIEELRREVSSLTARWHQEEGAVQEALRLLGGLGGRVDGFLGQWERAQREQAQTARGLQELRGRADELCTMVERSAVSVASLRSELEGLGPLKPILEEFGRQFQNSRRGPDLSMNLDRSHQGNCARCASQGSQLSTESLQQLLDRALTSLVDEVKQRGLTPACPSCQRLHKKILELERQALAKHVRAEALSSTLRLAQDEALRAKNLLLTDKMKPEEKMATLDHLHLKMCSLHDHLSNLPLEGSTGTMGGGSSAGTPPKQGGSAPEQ

[2] = target: T2, tssk 2 fused to the GAL4 DNA binding domain (DNA-BD) (human, UniProt P04386 1-147 (Saccharomyces cerevisiae entry), limits assumed); test: yeast two-hybrid, growth in His-free medium (AH109)
T2 construct: Yeast two-hybrid bait expressed in the AH109 reporter strain; also called bait gene (tssk 2); fusion protein of tssk 2 with the DNA-BD
Experimental: In this experiment, a bait gene (tssk 2) was first transformed into the reporter strain as a fusion to the GAL4 DNA binding domain (DNA-BD). A second plasmid that expressed tsks as fusion to the GAL 4 activation domain (AD) was also introduced into the AH109 reporter strain. Western blots were performed to confirm expression of fusion proteins in yeast. […] This interaction was used as a positive control. […] Neither GAL-AD alone nor the fusion proteins between GAL-AD and TSKS or GAL-AD and SV40 Large T antigen had the ability to activate transcription of the His gene.

B1: tssk 2 fused to the GAL4 DNA binding domain (DNA-BD) (protein)
chain: MKLLSSIEQACDICRLKKLKCSKEKPKCAKCLKNNWECRYSPKTKRSPLTRAHLTEVESRLERLEQLFLLIFPREDLDMILKMDSLQDIKALLTGLFVQDNVNKDAVTDRLASVETDMPLTLRQHRISATSSSEESSNKGQRQLTVSMDDATVLRKKGYIVGINLGKGSYAKVKSAYSERLKFNVAVKIIDRKKTPTDFVERFLPREMDILATVNHGSIIKTYEIFETSDGRIYIIMELGVQGDLLEFIKCQGALHEDVARKMFRQLSSAVKYCHDLDIVHRDLKCENLLLDKDFNIKLSDFGFSKRCLRDSNGRIILSKTFCGSAAYAAPEVLQSIPYQPKVYDIWSLGVILYIMVCGSMPYDDSDIRKMLRIQKEHRVDFPRSKNLTCECKDLIYRMLQPDVSQRLHIDEILSHSWLQPPKPKATSSASFKREGEGKYRAECKLDTKTGLRPDHRPDHKLGAKTQHRLLVVPENENRMEDRLAETSRAKDHHISGAEVGKAST
B1 was tested, and the “transcription of the Histidine (HIS) gene; growth of yeast in His-free medium” value [1] was “promote transcription of the Histidine (HIS) gene and allow for the growth of yeast in His-free medium”.

B2: GAL 4 activation domain alone (GAL-AD plasmid) (other, UniProt P04386 768-881, looked up)
chain: ANFNQSGNIADSSLSFTFTNSSNGPNLITTQTNSQALSQPIASSNVHDNFMNNEITASKIDDGNNSKPLSPGWTDQTAYNAFGITTGMFNTTTMDDVYNYLFDDEDTPPNPKKE
notes: Negative-control prey without an insert; also called GAL-AD alone
B2: no binding [2].
